Biological target: T1, HLA-A*02:01 (human)
T1 construct: MHC monomer first loaded with a UV-sensitive peptide that is cleaved by UV light and exchanged for the test peptide; captured on streptavidin plates and detected with anti-b2m; also called peptide-receptive MHC molecules; MHC class I
Assay: UV peptide-exchange ELISA, exchange yield grade
Source text: Candidate peptides for T cell based therapies according to the present invention were further tested for their MHC binding capacity (affinity). The individual peptide-MHC complexes were produced by UV-ligand exchange, where a UV-sensitive peptide is cleaved upon UV-irradiation, and exchanged with the peptide of interest as analyzed. Only peptide candidates that can effectively bind and stabilize the peptide-receptive MHC molecules prevent dissociation of the MHC complexes. To determine the yield of the exchange reaction, an ELISA was performed based on the detection of the light chain (B2m) of stabilized MHC complexes. The assay was performed as generally described in Rodenko et al. (Rodenko et al., 2006).
96 well MAXISorp plates (NUNC) were coated over night with 2 μg/ml streptavidin in PBS at room temperature, washed 4× and blocked for 1 h at 37° C. in 2% BSA containing blocking buffer. Refolded HLA-A*02:01/MLA-001 monomers served as standards, covering the range of 15-500 ng/ml. Peptide-MHC monomers of the UV-exchange reaction were diluted 100 fold in blocking buffer. Samples were incubated for 1h at 37° C., washed four times, incubated with 2 μg/ml HRP conjugated anti-β2m for 1h at 37° C., washed again and detected with TMB solution that is stopped with […]. Absorption was measured at 450 nm. Candidate peptides that show a high exchange yield (preferably higher than 50%, most preferred higher than 75%) are generally preferred for a generation and production of antibodies or fragments thereof, and/or T cell receptors or fragments thereof, as they show sufficient avidity to the MHC molecules and prevent dissociation of the MHC complexes.

Row | peptide exchange yield [%] | Binder
1 | ≥ 75 | FILPSSLYL
2 | 50 to 75 | FIMEGGAMVL
3 | 50 to 75 | LAIVPVNTL
